Reference: patent US20070243583A1 (University of Texas, published 2007)

T1: RNase A (UniProt P61823 27-150)
T1 sequence (looked up): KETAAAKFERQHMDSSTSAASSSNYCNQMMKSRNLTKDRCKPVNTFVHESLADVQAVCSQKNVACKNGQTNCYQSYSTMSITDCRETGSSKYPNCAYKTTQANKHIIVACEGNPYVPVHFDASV


Columns and labels:
[1] = target: the molecule itself; assay: gel filtration FPLC of the purified protein (self-association, homodimer)
[2] = target: insulin
[3] = target: citrate synthase
[4] = target: T1, RNase A; assay: cell-based or functional assay

Binder	binding result [1]	Insulin Reduction (*10^3 DA650 nm/min^-2) [2]	Citrate Synthase Inactivation, CS t1/2 [3] [min]	Citrate Synthase Inactivation, µ [3] [min - 1]	RNAse Refolding [4] [µM/min/µM Enzyme]
DsbC (enzyme, Escherichia coli, UniProt P0AEG6 21-236, looked up, also called wild-type DsbC) DDAAIQQTLAKMGIKSSDIQPAPVAGMKTVLTNSGVLYITDDGKHIIQGPMYDVSGTAPVNVTNKMLLKQLNALEKEMIVYKAPQEKHVITVFTDITCGYCHKLHEQMADYNALGITVRYLAFPRQGLDSDAEKEMKAIWCAKDKNKAFDDVMAGKSVAPASCDVDIADHYALGVQLGVSGTPAVVLSNGTLVPGYQPPKEMKEFLDEHQKMTSGK	binds	5.81	3.15	0.22	0.067
FkpA-DsbA2 (protein) AEAAKPATAADSKAAFKNDDQKSAYALGASLGRYMENSLKEQEKLGIKLDKDQLIAGVQDAFADKSKLSDQEIEQTLQAFEARVKSSAQAKMEKDAADNEAKGKEYREKFAKEKQYEDGKQYTTLEKPVAGAPQVLEFFSFFCPHCYQFEEVLHISDNVKKKLPEGVKMTKYHVNFMGGDLGKDLTQAWAVAMALGVEDKVTVPLFEGVQKTQTIRSASDIRDVFINAGIKGEEYDAAWNSFVVKSLVAQQEKAAADVQLRGVPAMFVNGKYQLNPQGMDTSNMDVFVQQYADTVKYLSEKKHHHHHH	–	0.45	2.46	0.17	–
FkpA-DsbA3 (protein) AEAAKPATAADSKAAFKNDDQKSAYALGASLGRYMENSLKEQEKLGIKLDKDQLIAGVQDAFADKSKLSDQEIEQTLQAFEARVKSSAQAKMEKDAADNEAKGKEYREKFAKEKYEDGKQYTTLEKPVAGAPQVLEFFSFFCPHCYQFEEVLHISDNVKKKLPEGVKMTKYHVNFMGGDLGKDLTQAWAVAMALGVEDKVTVPLFEGVQKTQTIRSASDIRDVFINAGIKGEEYDAAWNSFVVKSLVAQQEKAAADVQLRGVPAMFVNGKYQLNPQGMDTSNMDVFVQQYADTVKYLSEKKHHHHHH	–	0.43	2.01	0.36	–
FkpA-DsbA5 (protein) AEAAKPATAADSKAAFKNDDQKSAYALGASLGRYMENSLKEQEKLGIKLDKDQLIAGVQDAFADKSKLSDQEIEQTLQAFEARVKSSAQAKMEKDAADNEAKGKEYREKFAKEKDGKQYTTLEKPVAGAPQVLEFFSFFCPHCYQFEEVLHISDNVKKKLPEGVKMTKYHVNFMGGDLGKDLTQAWAVAMALGVEDKVTVPLFEGVQKTQTIRSASDIRDVFINAGIKGEEYDAAWNSFVVKSLVAQQEKAAADVQLRGVPAMFVNGKYQLNPQGMDTSNMDVFVQQYADTVKYLSEKKHHHHHH	–	0.38	2.71	0.26	–
FkpA-DsbA4 (protein) AEAAKPATAADSKAAFKNDDQKSAYALGASLGRYMENSLKEQEKLGIKLDKDQLIAGVQDAFADKSKLSDQEIEQTLQAFEARVKSSAQAKMEKDAADNEAKGKEYREKFAKEKEDGKQYTTLEKPVAGAPQVLEFFSFFCPHCYQFEEVLHISDNVKKKLPEGVKMTKYHVNFMGGDLGKDLTQAWAVAMALGVEDKVTVPLFEGVQKTQTIRSASDIRDVFINAGIKGEEYDAAWNSFVVKSLVAQQEKAAADVQLRGVPAMFVNGKYQLNPQGMDTSNMDVFVQQYADTVKYLSEKKHHHHHH	–	0.55	3.82	0.45	–
